Laboratory results from the RNAGym collection of RNA variant scans (doi:10.1073/pnas.2313332121).

B1: TPR t1 (parent)
chain: GACCAAUCUGCCCUCAGAGCUCGAGAACAUCUUCGGAUGCAGAGGAGGCAGGCUUCGGUGGCGCGAUAGCGCCAACGUCCUCAACCUCCAAUGCAUCCCACCACAUGAUGAUGCCUGAAGAGCCUUGGUUUUUUG

Variants of: B1
Assay: polymerase ribozyme fitness, log enrichment relative to wild type (log ratio); higher = more active; in vitro selection for triplet polymerase activity
Procedure, shortened: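 Both subunits of a heterodimeric triplet polymerase ribozyme were given their own mutant library, built by PCR and transcribed. Each library was annealed with a biotinylated primer, the partner subunit and triplets, incubated frozen at −7 °C, and its extended constructs gel-excised, captured on streptavidin beads and amplified by RT-PCR, all in one round done in triplicate. Fitness is the logarithm of genotype enrichment relative to wild-type enrichment, with replicates averaged by inverse-variance weighting. That logarithm is base 2, and Illumina-sequenced genotypes needed ≥10 input reads and ≥1 read per output.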

| Variant | polymerase ribozyme fitness (log ratio) |
| --- | --- |
| GACCAAUCUGCCCUCAGAGCUCGAGAACAUCUUCGGUUGCACAGGAGGCAGGCUUCCGUGGCGCGAUAGUGCCAACGUCCUCAACCUCCAAUGCAUCCCACCACAUGAUGAUGCCUGAAGAGCCUUGGAUUUUUG [A37U G42C G57C C70U U129A] | -5 |
| GACCAAUCUGCCCUCAGAGCUCGAGAACAUCUUCGGUUUCAGAGGAGGCAGGCUUCGGUGGCGCGAUAGCGCCAACGUCCUCAACCUCCAAUGCAUCCCACCAUAUGAUGAUGCCUGAAGAGCCUUGGUUUUUUG [A37U G39U C104U] | -1.36 |
| GACCAAUCUGCCCUCAGAGCUCGAGAACAUCUUCGGUUGCAGAGCCGGCAGGCUUCGGUGGCGCGAUAGCGCCAACGACCUCAACCUCCAAUGCAUCCCACCACAUGAUGAUGCCUGAAGAGCCUUGGUUUUUUG [A37U G45C A46C U78A] | -2.59 |
| GACCAAUCUGCCCUCAGAGCUCGAGAACAUCUUCGGUUGCAGAAGAGGCAGGCUUCGGUGGCGCGAUAGCGCCAACGUCCUCAACCUCCAAUGCAUCCCAACACAUGAUGGUGCCUGAAGAGCCUUGGUUUUUUG [A37U G44A C101A A111G] | -1.68 |
| GACCAAUCUGCCCUCAGAGCUCGAGAACAUCUUCGGUUCCAGAGGAGGCAGGCCUCGGGGGCGCGAUAGCGCCAACGUCCUCAACCUCAAAUGCAUCCCACCACAUGAUGAAGCCUGAAGCGCCUUGGUUUUUUG [A37U G39C U54C U59G C89A U112A A121C] | -4.68 |
| GACCAAUCUGCCCUCAGAGCUCGAGAACAUCUUCGGUUGCACAGGAGGGAGGCUUCGGUGGCGCGAUAGCGCCAACGUCCUCAAUCUCCAAUUCAUCCCACUACAUGAUGAUGCCUGAAGAGCCUUGGUUUUGUG [A37U G42C C49G C85U G93U C102U U133G] | -5.53 |
| GACCAAUCUGCCCUCAGAGCUCGAGAACAUCUUCGGUUGCAGAGUAGGCAGGCUUCGGUGCCGCGAUAGCGCCAACGUCCUCAACCUCCAAUGCAUCCCACCACAUGAUGAUGCCUGAAGAGCCUUGGUUUUUUG [A37U G45U G61C] | -2.86 |
| GACCAAUCUGCCCUCAGAGCUCGAGAACAUCUUCGGUUGCAGAGGAAGCAGGCUUCGGUGGCGCGAUAGCGCCAACAUCCUCAACCUCCAAUGCAUCCCACCACAUGAUGAUGCCUGAAGAGCCUUGGUUUUUUG [A37U G47A G77A] | -1.29 |
| GACCAAUCUGCCCUCAGAGCUCGAGAACAUCUUCGGUUGCAGAGUAGGCAGGCUUUGGUGGCGCGAUAGGGCCAACGUCCUCAACCUCCAAUGCAUCCCACGACAUGAUGAUACCUGAAGAGCCAUGGUUUUUUG [A37U G45U C56U C70G C102G G113A U125A] | -7.38 |
| GACCAAUCUGCCCUCAGAGCUCGAGAACAUCUUCGGUUGCAGAGGAUGCAGGCUUCGGUAGCGCGAUAGCGCCAACGUCCUCAACCUCCAAUGCAUCCCACCACAUGAUAAUGCCUGAAGAGCCUUGGUUUUUUG [A37U G47U G60A G110A] | -3.74 |
| GACCAAUCUGCCCUCAGAGCUCGAGAACAUCUUCGGUUUCAGAGGAGGCAGGCUUCGGUGGCGCGAUAACGCCAACGUCCUCAACCUCCAAUGCAUCCCACCACAUGAUGAUGCCUGAAGAGCCUUGGUUUUUUG [A37U G39U G69A] | -4.43 |
| GACCAAUCUGCCCUCAGAGCUCGAGAACAUCUUCGGUUGCAGAGGAGACAGGCUUCGGUGGCGCGAUAGCGCCAACGUCCUCAACCUCCAAUGCAUCCCACCACAUGAUGAUGCCUGAAGAGCCUUGGUUUUUUG [A37U G48A] | -0.338 |
| GACCAAUCUGCCCUCAGAGCUCGAGAACAUCUUCGGUUGCAGAGGACGCAGGCUUGGGUGGCGCGAUAGCGCCAACGUCCUCAACCUCCAAUGCAUCCCACCAAAUGAUGAUGCCUGAAGAGCCUUGGUUUUUUG [A37U G47C C56G C104A] | -3.66 |
| GACCAAUCUGCCCUCAGAGCUCGAGAACAUCUUCGGUUGCAGAGGACGUAGGCUUCGGUGGCGCGAUAGCGCCAACGUCCUCAACCUCCAAUGCAUCCCACCACAUGAUGAUGCCUGAAGAGCCUUGGUUUUUUG [A37U G47C C49U] | -2.66 |
| GACCAAUCUGCCCUCAGAGCUCGAGAACAUCUUCGGUUGCAGAAGAGGCAGGCUUCGGUGGCGCGAUAGCGCCAACGUCCUCAACCUCCAAUGCAUCCCACCACAUGAUGAUGCCUGAAGAACCUUGGUCAUUUU [A37U G44A G122A U130C U131A G135U] | -1.23 |
| GACCAAUCUGCCCUCAGAGCUCGAGAACAUCUUCGGUUUCAGAGGAGGCAGGCUUCGGUGGCGCGAUAGCGCCAACGUCCUCAACCUCCAAUGCAUCCCACCACAUGAUGAUGCCUGAAGAGCCUUGGUUUUUUG [A37U G39U] | -1.39 |
| GACCAAUCUGCCCUCAGAGCUCGAGAACAUCUUCGGUUGCAGAGGAGACAGGCUUCGGUGGCGCGAUAGCGCCAACGUCCUCAACCUCCAAUGCAUCCCACCACUUGAUGUUGCCUGAAGAGCCUUGGUUUUUUG [A37U G48A A105U A111U] | -6.33 |
| GACCAAUCUGCCCUCAGAGCUCGAGAACAUCUUCGGUUGCAGAGGAGUCAGGCUUCUGUUGCGCGAUAGCGCCAACGUCCUCAACCUCCAAUGCAUCCCACCACAUGAUGAUGCCUGAAGAGCCUUGGCUUUUUG [A37U G48U G57U G60U U129C] | -1.31 |
| GACCAAUCUGCCCUCAGAGCUCGAGAACAUCUUCGGUUGCAGAGGAAGCAGGCUUCGGUGGCGCGAUAGCGCCAACGUCCUCAACCUCCAAUGCAUCCCACCACAUGAUGAUGCCGGAAGAGCCUUGGUUUUUUG [A37U G47A U116G] | -3.09 |
| GACCAAUCUGCCCUCAGAGCUCGAGAACAUCUUCGGUUGCAGAGGAGCCAGGCUUCGGUGGCGCGAUAGCGCCAACGUCCUCAACCUCCAAUGCAUCCCACCACAUGAUGAUGCCUGAAGCGCCUUGGUUUUUUG [A37U G48C A121C] | 0.912 |
| GACCAAUCUGCCCUCAGAGCUCGAGAACAUCUUCGGUUGCAAAGGAGGCAGGCUUCGGUGGCGCGAUAGCGCCAACGUCCUCAACCUCCAAUGCAUCCCACCACAUGAUGAUGCCUGAAGAGCCUUGGUUUUUUG [A37U G42A] | -2.01 |
